This data set in a line: protein stability index of a GFP-peptide fusion (yeast GPS) (PSI 1-4); higher = more stable; sorted into four equal gates, so the index is relative within each strain. An outline of the steps:
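Plasmids isolated from each sorting gate were PCR-amplified and Illumina-sequenced, and barcodes assigned the reads to strains. The gates, four of equal size, were set by GFP/Cherry fluorescence ratio on mid-log cultures in leucine-free medium. These cultures were yeast carrying a pooled library of tiled 17-residue yeast protein peptides fused downstream of GFP on a plasmid that also expresses Cherry. The protein stability index is the sum of every gate's read frequency times its gate number.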

± gives the uncertainty stated by the source.

Take SDKAQLNVVMKNLERLR [SMC4]: the protein stability index (doa10∆) was found to be 3.28 ± 0.099, the protein stability index (pdr5∆) is 3.46 ± 0.15, the protein stability index (san1∆) was found to be 3.13 ± 0.11 and the protein stability index (ubr1∆) amounted to 2.72 ± 0.28.
The like results for FTQQELQKQMGIGSLTD [RPC34] were, in that order, 2.22 ± 0.088, 2.39 ± 0.11, 2.33 ± 0.17 and 2.48 ± 0.11.
Turning to KGLTYLHLDYNFNLKPT [PRP8], the protein stability index is 2.19 ± 0.032 (doa10∆), 2.12 ± 0.035 (pdr5∆), 2.05 ± 0.05 (san1∆) and 2.22 ± 0.03 (ubr1∆).
QWNKLTSFDIKREGRNE [POP6]: the protein stability index (doa10∆) worked out at 3.31 ± 0.3.
Regarding HLLYPPHIIAVACLFIT [SSN8], the protein stability index is 1.26 ± 0.053 (doa10∆), 1.27 ± 0.038 (pdr5∆), 1.32 ± 0.1 (san1∆) and 1.34 ± 0.052 (ubr1∆).
Sequence SIKNNVAMCFVINKLDR [SNU114] displayed a protein stability index (doa10∆) of 1.9 ± 0.14 and a protein stability index (pdr5∆) of 1.91 ± 0.12.
For the sequence LVEEFMLLANISVARKI [DIS3], the protein stability index reads like this: (doa10∆) 1.3 ± 0.062; (pdr5∆) 1.84 ± 0.092; (san1∆) 1.77 ± 0.16; (ubr1∆) 2.18 ± 0.055.
In the case of FNIIREFRSAAGQLALD [YDL116W/NUP84], the protein stability index by setting is: (doa10∆) 2.92 ± 0.12; (pdr5∆) 3.16 ± 0.12; (san1∆) 2.94 ± 0.076; (ubr1∆) 3.25 ± 0.087.
Turning to GPDTKGQLEDFDSELIH [SMC3], the protein stability index came out at 3.1 ± 0.21 (doa10∆), 3.52 ± 0.18 (pdr5∆) and 3.62 ± 0.22 (ubr1∆).
On to NSFKLFKAEKLQIVNQL [RPC17], for which the protein stability index came to 2.82 ± 0.077 (doa10∆), 2.32 ± 0.076 (pdr5∆), 1.85 ± 0.16 (san1∆) and 2.13 ± 0.056 (ubr1∆).
Take VTEDGSIVTVVSSAKFS [RPL22B]: the protein stability index reads like this: (doa10∆) 2.79 ± 0.1; (pdr5∆) 3 ± 0.12; (san1∆) 2.99 ± 0.1; (ubr1∆) 2.87 ± 0.087.
Take VTKLNVLVDEIKSQYYS [YIL149C/MLP2]: the protein stability index (doa10∆) is 2.36 ± 0.066, the protein stability index (pdr5∆) was 2.33 ± 0.052, the protein stability index (san1∆) was 2.35 ± 0.074 and the protein stability index (ubr1∆) came to 2.28 ± 0.037.
On to KVIDLDTKLKAHELQSE [YIL149C/MLP2], for which the protein stability index came to 2.55 ± 0.055 (doa10∆), 2.73 ± 0.053 (pdr5∆), 2.58 ± 0.059 (san1∆) and 2.69 ± 0.042 (ubr1∆).
Consider ATVEECVKLTVRSLLEV [PRE6], for which the protein stability index turned out to be 1.53 ± 0.052 (doa10∆), 1.72 ± 0.064 (pdr5∆), 1.88 ± 0.12 (san1∆) and 1.47 ± 0.055 (ubr1∆).
For YKENEAMLRENIEVILS [SNF12], in that order: 2.42 ± 0.053, 2.73 ± 0.071, 2.84 ± 0.046 and 2.53 ± 0.057.
Turning to DTSTQAYEEEEENEDND [NUT1], the protein stability index runs as follows: (doa10∆) 3.24 ± 0.13; (pdr5∆) 3.5 ± 0.17; (san1∆) 3.54 ± 0.18; (ubr1∆) 3.39 ± 0.12.
For TGHLFLKIIHTSVWAGQ [PRP8], in that order: 1.31 ± 0.06, 1.31 ± 0.056, 1.19 ± 0.097 and 1.28 ± 0.051.
Regarding KAGLMTGGISGDANNRW [SMC1], the protein stability index (doa10∆) stood at 2.38 ± 0.11, the protein stability index (pdr5∆) stood at 2.31 ± 0.088, the protein stability index (san1∆) was 2.54 ± 0.062 and the protein stability index (ubr1∆) amounted to 2.51 ± 0.074.
Turning to LPGTNNNSNSNNNSSNE [SEC65], the protein stability index is 2.93 ± 0.051 (doa10∆), 2.69 ± 0.054 (pdr5∆), 2.89 ± 0.042 (san1∆) and 2.8 ± 0.049 (ubr1∆).
For the sequence NQEDEKNLQRESCEDIL [RTT102], under “ubr1∆”, the protein stability index stood at 3.17 ± 0.2.
For FTSHTRLRQGAAKLRTL [RPL2A], the protein stability index is 2.03 ± 0.059 (doa10∆), 1.68 ± 0.044 (pdr5∆), 2.1 ± 0.073 (san1∆) and 1.95 ± 0.039 (ubr1∆).
For KKLKAVRIIKHTLDIIN [RPS5], in that order: 2 ± 0.066, 2.01 ± 0.048, 1.91 ± 0.057 and 2.36 ± 0.051.
As to SEKGLLSATQFTQPALT [FAS1], the protein stability index (doa10∆) came out at 2.44 ± 0.061, the protein stability index (pdr5∆) was 2.65 ± 0.047, the protein stability index (san1∆) was 2.73 ± 0.039 and the protein stability index (ubr1∆) was determined as 2.57 ± 0.038.
On to TSSVILGSQSKSDEGGS [YOR098C/NUP1], for which the protein stability index reads like this: (pdr5∆) 2.23 ± 0.12; (ubr1∆) 1.81 ± 0.15.
In the case of RAYLSHSNRCIVFSKKE [CSN12], the protein stability index by setting is: (doa10∆) 1.41 ± 0.075; (pdr5∆) 1.56 ± 0.062; (san1∆) 1.13 ± 0.15; (ubr1∆) 1.15 ± 0.036.
The like results for VEDFLERRLQTQVYKLG [RPS9A] were, in that order, 1.28 ± 0.071, 1.45 ± 0.095, 1.97 ± 0.27 and 1.93 ± 0.18.
Consider LDQTKDTRITHLLRQTN [SNF2], for which the protein stability index by setting is: (doa10∆) 1.34 ± 0.036; (pdr5∆) 1.41 ± 0.034; (san1∆) 1.54 ± 0.061; (ubr1∆) 1.32 ± 0.029.
Turning to ESIASSNTYKEERSNNL [MCD1], the protein stability index runs as follows: (doa10∆) 3.03 ± 0.13; (pdr5∆) 3.37 ± 0.14; (san1∆) 3.25 ± 0.06; (ubr1∆) 3.39 ± 0.075.
DLSLNITLHPSFFGPRM [RPB7] came in with a protein stability index (doa10∆) of 2.25 ± 0.22, a protein stability index (pdr5∆) of 1.83 ± 0.1, a protein stability index (san1∆) of 1.7 ± 0.14 and a protein stability index (ubr1∆) of 1.55 ± 0.074.
For the sequence SKVYFNNQSKEKADYED [RPN12], the protein stability index runs as follows: (doa10∆) 2.56 ± 0.076; (pdr5∆) 2.64 ± 0.067; (san1∆) 2.67 ± 0.098; (ubr1∆) 2.48 ± 0.054.
For RLNFNQNSSKIVNVLSK [SWI3], the protein stability index was determined as 2.56 ± 0.057 (doa10∆), 2.7 ± 0.051 (pdr5∆), 3.04 ± 0.048 (san1∆) and 2.93 ± 0.042 (ubr1∆).
Consider CNSLHIPQDFENEVSDI [ESC2], for which the protein stability index reads like this: (doa10∆) 2.95 ± 0.06; (pdr5∆) 3.03 ± 0.056; (san1∆) 2.93 ± 0.088; (ubr1∆) 2.92 ± 0.045.
For ALEEGLNEEAVIFLSSL [YJL039C/NUP192], the protein stability index is, setting by setting: (doa10∆) 3.28 ± 0.1; (pdr5∆) 3.05 ± 0.062; (san1∆) 3 ± 0.07; (ubr1∆) 2.99 ± 0.065.
Take TKSETKQENETMQPPYI [MED11]: the protein stability index turned out to be 2.95 ± 0.051 (doa10∆), 2.85 ± 0.059 (pdr5∆), 2.7 ± 0.1 (san1∆) and 2.96 ± 0.042 (ubr1∆).
Take DSELNRALFETKLNLHC [RRI1]: the protein stability index by setting is: (doa10∆) 2.75 ± 0.067; (pdr5∆) 2.79 ± 0.053; (san1∆) 3 ± 0.038; (ubr1∆) 2.92 ± 0.055.
As for QRKKQIAFPQRKYAIKA [RPL35A], the protein stability index (doa10∆) is 1.25 ± 0.059, the protein stability index (pdr5∆) came to 1.51 ± 0.078, the protein stability index (san1∆) is 1.1 ± 0.17 and the protein stability index (ubr1∆) came to 1.23 ± 0.062.
For QFCAFDSSSNTYRSRAQ [SIN4], in that order: 2.82 ± 0.075, 2.37 ± 0.08, 2.81 ± 0.05 and 2.39 ± 0.057.
As to AGKVKSQTPKVEKTEKP [RPS30A], the protein stability index came out at 3.18 ± 0.078 (doa10∆), 2.9 ± 0.093 (pdr5∆), 2.95 ± 0.072 (san1∆) and 2.93 ± 0.055 (ubr1∆).
